Read-outs that look alike come from different tables or passages of the source.
Experiments:
[1] = target: microtubules (MTs), individual (UniProt P68363); assay: single-molecule TIRF microscopy
[2] = target: microtubules (MTs), individual (UniProt P68363); assay: single-molecule TIRF microscopy; remark: listed apart in the source
[3] = target: microtubules (MTs), individual (UniProt P68363); assay: single-molecule TIRF microscopy; remark: listed apart in the source
[4] = target: the molecule itself; assay: single-molecule photobleaching steps
[5] = target: the molecule itself; assay: negative stain electron microscopy
SEC = target: the molecule itself; assay: SEC

microtubules (MTs), individual, sequence (P68363 whole entry, chain 1 of 2): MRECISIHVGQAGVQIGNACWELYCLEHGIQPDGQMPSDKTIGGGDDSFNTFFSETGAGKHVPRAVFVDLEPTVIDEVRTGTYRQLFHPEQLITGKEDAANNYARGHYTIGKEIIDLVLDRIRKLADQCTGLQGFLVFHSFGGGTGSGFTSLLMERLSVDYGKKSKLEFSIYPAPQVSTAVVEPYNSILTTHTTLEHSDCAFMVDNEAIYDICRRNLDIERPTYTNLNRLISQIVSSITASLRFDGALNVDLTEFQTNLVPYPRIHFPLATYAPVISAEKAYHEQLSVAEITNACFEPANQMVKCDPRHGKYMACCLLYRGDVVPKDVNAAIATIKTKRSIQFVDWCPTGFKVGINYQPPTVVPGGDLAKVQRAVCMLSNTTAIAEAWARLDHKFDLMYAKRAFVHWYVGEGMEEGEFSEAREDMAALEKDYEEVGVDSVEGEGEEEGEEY
microtubules (MTs), individual, sequence (P07437 whole entry, chain 2 of 2, further chain): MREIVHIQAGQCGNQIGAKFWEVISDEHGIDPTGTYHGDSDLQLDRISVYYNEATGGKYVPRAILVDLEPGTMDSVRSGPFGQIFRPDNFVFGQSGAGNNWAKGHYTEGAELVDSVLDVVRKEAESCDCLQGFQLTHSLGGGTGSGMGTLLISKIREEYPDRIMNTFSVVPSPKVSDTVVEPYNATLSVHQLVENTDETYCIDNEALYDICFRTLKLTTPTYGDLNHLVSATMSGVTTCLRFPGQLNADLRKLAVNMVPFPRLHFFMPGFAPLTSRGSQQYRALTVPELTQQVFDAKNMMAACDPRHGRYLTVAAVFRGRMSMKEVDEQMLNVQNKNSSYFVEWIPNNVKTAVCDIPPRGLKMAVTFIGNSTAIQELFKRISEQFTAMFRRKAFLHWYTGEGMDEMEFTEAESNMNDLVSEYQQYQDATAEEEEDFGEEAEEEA

B1: GFP-Kif15-FL (full-length Kif15, Kinesin-12) (natural protein, UniProt Q9NS87 1-1388, looked up)
chain: MAPGCKTELRSVTNGQSNQPSNEGDAIKVFVRIRPPAERSGSADGEQNLCLSVLSSTSLRLHSNPEPKTFTFDHVADVDTTQESVFATVAKSIVESCMSGYNGTIFAYGQTGSGKTFTMMGPSESDNFSHNLRGVIPRSFEYLFSLIDREKEKAGAGKSFLCKCSFIEIYNEQIYDLLDSASAGLYLREHIKKGVFVVGAVEQVVTSAAEAYQVLSGGWRNRRVASTSMNRESSRSHAVFTITIESMEKSNEIVNIRTSLLNLVDLAGSERQKDTHAEGMRLKEAGNINRSLSCLGQVITALVDVGNGKQRHVCYRDSKLTFLLRDSLGGNAKTAIIANVHPGSRCFGETLSTLNFAQRAKLIKNKAVVNEDTQGNVSQLQAEVKRLKEQLAELASGQTPPESFLTRDKKKTNYMEYFQEAMLFFKKSEQEKKSLIEKVTQLEDLTLKKEKFIQSNKMIVKFREDQIIRLEKLHKESRGGFLPEEQDRLLSELRNEIQTLREQIEHHPRVAKYAMENHSLREENRRLRLLEPVKRAQEMDAQTIAKLEKAFSEISGMEKSDKNQQGFSPKAQKEPCLFANTEKLKAQLLQIQTELNNSKQEYEEFKELTRKRQLELESELQSLQKANLNLENLLEATKACKRQEVSQLNKIHAETLKIITTPTKAYQLHSRPVPKLSPEMGSFGSLYTQNSSILDNDILNEPVPPEMNEQAFEAISEELRTVQEQMSALQAKLDEEEHKNLKLQQHVDKLEHHSTQMQELFSSERIDWTKQQEELLSQLNVLEKQLQETQTKNDFLKSEVHDLRVVLHSADKELSSVKLEYSSFKTNQEKEFNKLSERHMHVQLQLDNLRLENEKLLESKACLQDSYDNLQEIMKFEIDQLSRNLQNFKKENETLKSDLNNLMELLEAEKERNNKLSLQFEEDKENSSKEILKVLEAVRQEKQKETAKCEQQMAKVQKLEESLLATEKVISSLEKSRDSDKKVVADLMNQIQELRTSVCEKTETIDTLKQELKDINCKYNSALVDREESRVLIKKQEVDILDLKETLRLRILSEDIERDMLCEDLAHATEQLNMLTEASKKHSGLLQSAQEELTKKEALIQELQHKLNQKKEEVEQKKNEYNFKMRQLEHVMDSAAEDPQSPKTPPHFQTHLAKLLETQEQEIEDGRASKTSLEHLVTKLNEDREVKNAEILRMKEQLREMENLRLESQQLIEKNWLLQGQLDDIKRQKENSDQNHPDNQQLKNEQEESIKERLAKSKIVEEMLKMKADLEEVQSALYNKEMECLRMTDEVERTQTLESKAFQEKEQLRSKLEEMYEERERTSQEMEMLRKQVECLAEENGKLVGHQNLHQKIQYVVRLKKENVRLAEETEKLRAENVFLKEKKRSES
With B1 the dwell time [1] was 12.2 s, the dwell time [2] was 1.9 s and the dwell time [3] was 4 s. For the same binder, the “stoichiometry N” value [4] was 2.

B2: GFP-HSET (kinesin-14 HSET) (natural protein, UniProt Q9BW19 1-673, looked up)
chain: MDPQRSPLLEVKGNIELKRPLIKAPSQLPLSGSRLKRRPDQMEDGLEPEKKRTRGLGATTKITTSHPRVPSLTTVPQTQGQTTAQKVSKKTGPRCSTAIATGLKNQKPVPAVPVQKSGTSGVPPMAGGKKPSKRPAWDLKGQLCDLNAELKRCRERTQTLDQENQQLQDQLRDAQQQVKALGTERTTLEGHLAKVQAQAEQGQQELKNLRACVLELEERLSTQEGLVQELQKKQVELQEERRGLMSQLEEKERRLQTSEAALSSSQAEVASLRQETVAQAALLTEREERLHGLEMERRRLHNQLQELKGNIRVFCRVRPVLPGEPTPPPGLLLFPSGPGGPSDPPTRLSLSRSDERRGTLSGAPAPPTRHDFSFDRVFPPGSGQDEVFEEIAMLVQSALDGYPVCIFAYGQTGSGKTFTMEGGPGGDPQLEGLIPRALRHLFSVAQELSGQGWTYSFVASYVEIYNETVRDLLATGTRKGQGGECEIRRAGPGSEELTVTNARYVPVSCEKEVDALLHLARQNRAVARTAQNERSSRSHSVFQLQISGEHSSRGLQCGAPLSLVDLAGSERLDPGLALGPGERERLRETQAINSSLSTLGLVIMALSNKESHVPYRNSKLTYLLQNSLGGSAKMLMFVNISPLEENVSESLNSLRFASKVNQCVIGTAQANRK
For B2, the “stoichiometry N” value [5] was 2.

B3: Kif15-N700 (C-terminally truncated Kif15) (domain or fragment, UniProt Q9NS87 1-700, looked up)
chain: MAPGCKTELRSVTNGQSNQPSNEGDAIKVFVRIRPPAERSGSADGEQNLCLSVLSSTSLRLHSNPEPKTFTFDHVADVDTTQESVFATVAKSIVESCMSGYNGTIFAYGQTGSGKTFTMMGPSESDNFSHNLRGVIPRSFEYLFSLIDREKEKAGAGKSFLCKCSFIEIYNEQIYDLLDSASAGLYLREHIKKGVFVVGAVEQVVTSAAEAYQVLSGGWRNRRVASTSMNRESSRSHAVFTITIESMEKSNEIVNIRTSLLNLVDLAGSERQKDTHAEGMRLKEAGNINRSLSCLGQVITALVDVGNGKQRHVCYRDSKLTFLLRDSLGGNAKTAIIANVHPGSRCFGETLSTLNFAQRAKLIKNKAVVNEDTQGNVSQLQAEVKRLKEQLAELASGQTPPESFLTRDKKKTNYMEYFQEAMLFFKKSEQEKKSLIEKVTQLEDLTLKKEKFIQSNKMIVKFREDQIIRLEKLHKESRGGFLPEEQDRLLSELRNEIQTLREQIEHHPRVAKYAMENHSLREENRRLRLLEPVKRAQEMDAQTIAKLEKAFSEISGMEKSDKNQQGFSPKAQKEPCLFANTEKLKAQLLQIQTELNNSKQEYEEFKELTRKRQLELESELQSLQKANLNLENLLEATKACKRQEVSQLNKIHAETLKIITTPTKAYQLHSRPVPKLSPEMGSFGSLYTQNSSILDNDILN
With B3 the “stoichiometry N” value (SEC) was 2.
